According to paper PMC12207370, “Macrocyclic Peptide Probes for Immunomodulatory Protein CD59: Potent Modulators of Bacterial Toxin Activity and Antibody‐Dependent Cytotoxicity” (Angewandte Chemie (International Ed. in English), 2025):

Biological target: T1, biotinylated CD59 (Homo sapiens, UniProt P13987)
T1 construct: Recombinant soluble human CD59 with an additional C-terminal cysteine residue
T1 sequence (P13987 26-102 limits assumed): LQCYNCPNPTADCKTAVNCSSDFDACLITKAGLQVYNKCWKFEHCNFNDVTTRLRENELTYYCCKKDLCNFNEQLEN
Assay: mRNA-display cyclic peptide screen against CD59-biotin, NGS abundance after 6th selection round
Conditions: for Percentage Seq I: counts normalised by total counts of sample Seq I; for Percentage Seq I / Percentage Seq II: percentage of the pool; for Percentage Seq I / Percentage Seq II / Percentage Average / Percentage of the pool, averaged across the two sequencing samples / Percentage of the pool, Seq I / Percentage of the pool, Seq II: sheet R6; for Percentage Seq II: counts normalised by total counts of sample Seq II; for Percentage Average: percentage of the pool averaged across the two sequencing samples; for Counts Seq I / Counts Seq II: raw NGS counts of peptide sequence; for Counts Seq I: sequencing sample Seq I; for Counts Seq I / Counts Seq II / Counts (raw counts for peptide sequence), Seq I / Counts (raw counts for peptide sequence), Seq II: sheet R6 (6th selection round); for Counts Seq II: sequencing sample Seq II; for Counts (raw counts for peptide sequence), Seq I: NGS sample Seq I; for Counts (raw counts for peptide sequence), Seq II: NGS sample Seq II; for Percentage of the pool, averaged across the two sequencing samples: average of Seq I and Seq II; for Percentage of the pool, Seq I: counts normalised by total counts of NGS sample Seq I; for Percentage of the pool, Seq II: counts normalised by total counts of NGS sample Seq II
Method in brief: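 Peptide–mRNA fusions were made by in vitro translation with a customised PURE express kit. The kit lacked release factor 1 and methionine and was supplemented with […] initiator tRNA carrying N-chloroacetyl-d-tyrosine. Thioether macrocycles were formed, then enriched and amplified over iterative rounds on CD59-biotin immobilised on streptavidin beads. NGS read counts per sequence were recorded after the 6th selection round.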

Sequence	Percentage Seq I	Percentage Seq II	Percentage Average	Counts Seq I	Counts Seq II	Counts (raw counts for peptide sequence), Seq I	Counts (raw counts for peptide sequence), Seq II	Percentage of the pool, averaged across the two sequencing samples	Percentage of the pool, Seq I	Percentage of the pool, Seq II
IAFGSRFHSYQ	0.584%	0.647%	0.616%	2554	279					
FVAGNRDHTRG	0.023%	0.016%	0.020%	102	7					
CFTQRIASGSK	0.024%	0.021%	0.022%	105	9					
FVRGDLYPVLG						65	5	0.013%	0.015%	0.012%
DPICTRYNDPR						46	5	0.011%	0.011%	0.012%
SWTWGNGSSVRG	0.187%	0.186%	0.186%	817	80					
WRDRFDQCVL	2.463%	2.351%	2.407%	10776	1013					
FVRGGLYSVLG	0.020%	0.019%	0.019%	86	8					
RCWASGSRDWR						95	6	0.018%	0.022%	0.014%
CFALRLSQTSV	0.018%	0.042%	0.030%	78	18					
CSSLRARGWI						75	3	0.012%	0.017%	0.007%
STRRDRLGLTC						57	9	0.017%	0.013%	0.021%
WRDRFDQCVR	0.039%	0.053%	0.046%	169	23					
CFARRLSASFGT	1.002%	0.935%	0.969%	4384	403					
CCGGRTFIYAWS						44	4	0.010%	0.010%	0.009%
FIRGNSTSVLFAAAAAAARTGGG						40	7	0.013%	0.009%	0.016%
YSCPDWVRGSRT						36	6	0.011%	0.008%	0.014%
CFAARARNNQTV	0.091%	0.093%	0.092%	396	40					

Sequence	Percentage Seq I	Percentage Seq II	Percentage Average	Counts Seq I	Counts Seq II	Counts (raw counts for peptide sequence), Seq I	Counts (raw counts for peptide sequence), Seq II	Percentage of the pool, averaged across the two sequencing samples	Percentage of the pool, Seq I	Percentage of the pool, Seq II
CFTYRLSDEPSA	0.039%	0.016%	0.027%	169	7					
FVTGNRDHTSG						60	4	0.011%	0.014%	0.009%
SAWGNRQIQYH						65	7	0.016%	0.015%	0.016%
SAWGNRQVQYY	0.110%	0.116%	0.113%	483	50					
LLGARDYVRLWH						41	7	0.013%	0.009%	0.016%
FVRGDRYSVLG	0.045%	0.039%	0.042%	198	17					
GRLNECHVIWS	0.015%	0.037%	0.026%	65	16					
GYLNECHTLYTR	0.629%	0.645%	0.637%	2754	278					
CFVNRLGSAESR						63	9	0.018%	0.014%	0.021%
CFSRRSTSSQST	0.018%	0.019%	0.018%	77	8					
FVFGNRHFRTE	0.408%	0.492%	0.450%	1785	212					
YAFGSRDITYY	0.018%	0.023%	0.021%	78	10					
CAWGNRHTAYY	0.018%	0.030%	0.024%	80	13					
FRGRNDICTH						73	8	0.018%	0.017%	0.019%
CYGNSHAS						36	8	0.013%	0.008%	0.019%
HQECWARGSRE						68	5	0.014%	0.016%	0.012%
YVFWSRTHTYG	0.172%	0.165%	0.168%	751	71					
